Data on one molecule can be found in US20250381283A1, “METHOD FOR TREATING SOLID TUMOR” (priority 2022, published 2025).

The target of this experiment is T1, TROP2 (Trophoblast cell surface antigen 2) (UniProt P09758 27-323, limits assumed).
T1 sequence (looked up): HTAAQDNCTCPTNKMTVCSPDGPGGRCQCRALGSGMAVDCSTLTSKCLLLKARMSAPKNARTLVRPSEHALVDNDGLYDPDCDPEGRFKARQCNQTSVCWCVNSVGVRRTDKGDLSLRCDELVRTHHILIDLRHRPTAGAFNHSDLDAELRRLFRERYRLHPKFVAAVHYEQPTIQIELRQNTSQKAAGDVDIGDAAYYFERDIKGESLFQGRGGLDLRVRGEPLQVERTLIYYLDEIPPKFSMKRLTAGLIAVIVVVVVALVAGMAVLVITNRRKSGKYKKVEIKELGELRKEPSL
As to the kind of experiment: cell-based or functional assay.

B1: ADC1 (hRS9 antibody conjugated to CB07-Exatecan) (antibody, human IgG1, kappa, DAR 4.2, V domains shown)
VH: QVQLQQSGSELKKPGASVKVSCKASGYTFTNYGMNWVKQAPGQGLKWMGWINTYTGEPTYTDDFKGRFAFSLDTSVSTAYLQISSLKADDTAVYFCARGGFGSSYWYFDVWGQGTLVTVSS
VL: DIQLTQSPSSLSASVGDRVSITCKASQDVSIAVAWYQQKPGKAPKLLIYSASYRYTGVPDRFSGSGSGTDFTLTISSLQPEDFAVYYCQQHYITPLTFGAGTKVEIKR
modifications: CB07-Exatecan linker-drug conjugated to sulfhydryls of TCEP-reduced cysteines; average DAR (p) 4.2 over the whole antibody; positions not given
With B1, the “growth inhibition EC50 (CCK-8 cell proliferation, 120 h), MDA-MB-453 cells” value worked out at 0.64 µg/mL; the “growth inhibition EC50 (CCK-8 cell proliferation, 120 h), MDA-MB-468 cells” value came out at 0.158 µg/mL; the “growth inhibition EC50 (CCK-8 cell proliferation, 120 h), MX-1 cells” value came out at 0.233 µg/mL.
